# B1: anti-PVRIG monoclonal antibody ADI-56127-G1 (antibody, human IgG1, V domains shown)
# VH: QVQLVQSGAEVKKPGSSVKVSCKASGGTESVDAISWVRQAPGQGLEWMGDIIPFFDTDYAQKFQGRVTITADESTSTAYMELSSLRSEDTAVYYCAREGGTSWTHFFDLWGRGTLVTVSS
# VL: not shown
# notes: Wild-type human IgG1 heavy chain constant region, human kappa light chain constant region; HEK293
# B2: anti-PVRIG monoclonal antibody ADI-56127-G1LALA (antibody, human IgG1, V domains shown)
# VH: QVQLVQSGAEVKKPGSSVKVSCKASGGTESVDAISWVRQAPGQGLEWMGDIIPFFDTDYAQKFQGRVTITADESTSTAYMELSSLRSEDTAVYYCAREGGTSWTHFFDLWGRGTLVTVSS
# VL: not shown
# notes: Human IgG1 heavy chain constant region modified by L234A, L235A; human kappa light chain constant region; HEK293
# What was measured:
# [1] = target: T1, mouse PVRIG overexpressed on CHO cells (mouse, UniProt A0A1B0GS01 1-234); assay: flow cytometry, CHO-muPVRIG cells
# T1 construct: also called CHO-muPVRIG cells
# T1 sequence: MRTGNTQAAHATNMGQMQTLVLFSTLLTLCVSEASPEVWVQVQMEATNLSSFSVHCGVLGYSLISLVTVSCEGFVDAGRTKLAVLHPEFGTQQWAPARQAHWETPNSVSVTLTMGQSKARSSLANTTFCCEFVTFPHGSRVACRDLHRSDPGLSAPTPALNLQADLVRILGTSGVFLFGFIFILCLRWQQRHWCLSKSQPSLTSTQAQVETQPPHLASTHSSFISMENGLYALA
# Description: (§1) The overexpressing cells were expanded and adjusted to an appropriate cell density, and added to a 96-well flow cytometry plate. After centrifugation, the cells were added with a gradiently diluted sample to be tested, and incubated at 4° C. for 30 minutes. The cells were washed twice with PBS, and added with a fluorescent secondary antibody correspondingly diluted to an appropriate concentration, then incubated at 4° C. for 30 minutes, and washed twice with PBS. Cells were resuspended with PBS, and detected on a CytoFlex flow cytometer, and the corresponding MFI was calculated. Graphpad software was used for graphical analysis to obtain EC₅₀ values.
# [2] = target: T2, human PVRIG protein with mouse IgG2a Fc tag (human; mouse, UniProt Q6DKI7 41-171, limits assumed); assay: flow cytometry, competition: human PVRIG-mouse IgG2a Fc (1 ug/mL) binding to CHO-huCD112 cells
# T2 construct: Whole entry named; not shown: mouse IgG2a Fc tag
# T2 sequence (looked up): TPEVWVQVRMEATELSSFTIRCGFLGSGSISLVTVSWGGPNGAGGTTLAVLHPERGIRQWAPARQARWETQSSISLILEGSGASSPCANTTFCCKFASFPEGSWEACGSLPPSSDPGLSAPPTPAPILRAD
# Description: Specifically, CHO cells overexpressing human CD112 (CHO-huCD112 cells) were generated by transfection of the pCHO1.0 vector (purchased from Invitrogen) with cDNA encoding human CD112 cloned into the multiple cloning site (MCS), respectively, followed by pressure screening. The CHO-huCD112 cells were expanded and adjusted to a cell density of 2×10⁶ cells/mL, added to a 96-well flow plate at 100 μL/well, and centrifuged for later use. The purified monoclonal antibody was gradient diluted with PBS and the diluted sample was added to a blank 96-well flow plate at 60 μL/well. […] The above incubated samples were added at 100 μL/well to the 96-well flow plate containing CHO-huCD112 cells, incubated at 4° C. for 30 min and washed twice with PBS. APC-conjugated goat anti-mouse IgG antibody diluted 100-fold with PBS was added at 100 μL/well, incubated at 4° C. for 30 minutes and washed twice with PBS. Cells were resuspended with PBS at 100 μL/well, and detected on a CytoFlex flow cytometer, and the corresponding MFI was calculated.
# [3] = target: T3, cynomolgus PVRIG overexpressed on CHO cells (cynomolgus, UniProt A0A2K5WVV8 1-322); assay: flow cytometry, CHO-cynoPVRIG cells
# T3 construct: whole, on cells; also called CHO-cynoPVRIG cells
# T3 sequence: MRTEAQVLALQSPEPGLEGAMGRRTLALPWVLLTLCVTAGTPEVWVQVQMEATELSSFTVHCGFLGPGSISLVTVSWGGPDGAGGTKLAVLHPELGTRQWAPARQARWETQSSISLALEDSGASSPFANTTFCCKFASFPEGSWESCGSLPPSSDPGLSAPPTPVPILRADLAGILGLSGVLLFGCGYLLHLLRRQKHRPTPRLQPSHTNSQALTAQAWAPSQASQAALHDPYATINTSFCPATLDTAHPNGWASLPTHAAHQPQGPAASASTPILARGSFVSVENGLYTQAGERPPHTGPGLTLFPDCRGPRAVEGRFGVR
# Description: as §1
# [4] = target: Biotin-labeled mouse PVRIG huFc protein (mouse); assay: competition ELISA: biotin mouse PVRIG-huFc binding to coated mouse CD112-his
# Description: Specifically, mouse CD112-his protein diluted with 1× coating buffer to a final concentration of 1 μg/mL was added to the ELISA plate at 100 μL/well, covered with the film, and coated overnight at 4° C. The coating solution in the ELISA plate was discarded, and the ELISA plate was washed three times with 1×PBST and was blocked with 5% BSA/PBS at 200 μL/well for 2 hours at room temperature. During the blocking period, the samples to be tested were gradient diluted with 1% BSA/PBS to a final volume of 60 μL/well. […] The blocking solution in the ELISA plate was discarded, and the above sample mixture was added at 100 μL/well and incubated for 2 hours at room temperature. The above co-incubated samples were discarded, the ELISA plate was washed three times with 1×PBST, and SA-HRP diluted with 1% BSA/PBS was added at 100 μL/well and incubated for 1 hour at room temperature. The SA-HRP dilution was discarded, the ELISA plate was washed three times with 1×PBST, ELISA Chromogen Solution was added at 100 μL/well and incubated for 1-3 minutes at room temperature, ELISA stopping solution was added at 50 μL/well and the absorbance values were read at 450 nm.
# [5] = target: T4, human PVRIG expressed on cells (human, UniProt Q6DKI7 41-326); assay: flow cytometry, CHO-huPVRIG cells
# T4 construct: whole, on cells; cDNA encoding human PVRIG in pCHO1.0 for CHO cells; also called CHO-huPVRIG cells
# T4 sequence (looked up): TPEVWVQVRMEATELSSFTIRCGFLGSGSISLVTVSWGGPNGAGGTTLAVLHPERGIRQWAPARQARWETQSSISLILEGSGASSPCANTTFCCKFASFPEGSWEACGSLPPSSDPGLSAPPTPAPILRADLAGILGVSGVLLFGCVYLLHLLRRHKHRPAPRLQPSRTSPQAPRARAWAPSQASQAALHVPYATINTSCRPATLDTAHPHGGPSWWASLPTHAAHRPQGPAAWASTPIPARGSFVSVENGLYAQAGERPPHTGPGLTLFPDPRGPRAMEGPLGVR
# Description: as §1
Binder,EC50 [1],IC50 [2],EC50 [3],IC50 [4],EC50 [5]
B1,6.47 nM,1.23 nM,1.96 nM,1.57 nM,2.51 nM
B2,5.38 nM,1.36 nM,1.98 nM,1.78 nM,2.44 nM
